Key:
[1] = tested on: T1, N-His Ana GvpC with ssrA degradation tag (engineered Anabaena flos-aquae GvpC, ClpXP-sensitive)
T1 sequence: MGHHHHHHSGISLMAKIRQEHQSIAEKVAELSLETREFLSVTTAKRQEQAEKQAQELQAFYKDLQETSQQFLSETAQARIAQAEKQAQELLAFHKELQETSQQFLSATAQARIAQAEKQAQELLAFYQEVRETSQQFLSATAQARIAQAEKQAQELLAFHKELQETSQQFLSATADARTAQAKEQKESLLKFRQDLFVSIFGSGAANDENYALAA

WT N-His-Ana-GvpC = tested on: T2, WT N-His-Ana-GvpC
T2 sequence: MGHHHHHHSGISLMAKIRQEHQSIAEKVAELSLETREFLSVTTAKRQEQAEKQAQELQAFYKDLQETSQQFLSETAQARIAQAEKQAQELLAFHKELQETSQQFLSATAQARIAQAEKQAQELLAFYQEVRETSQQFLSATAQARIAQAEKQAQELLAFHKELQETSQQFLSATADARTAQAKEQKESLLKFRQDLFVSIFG

[2] = tested on: dGvpC (Ana GvpC with SG-AANDENYALAA at the C-terminus, encoded in the acoustic sensor gene for ClpXP)

Substance | 50% collapse pressure after ClpXP exposure (FIG. 9D) [1] | degradation on Coomassie-stained SDS-PAGE [1] | hydrostatic collapse midpoint shift (pressurized absorbance spectroscopy) [1] | increase in nonlinear CNR (FIG. 9E) [1] | nonlinear (x-AM) ultrasound contrast enhancement [1] | collapse pressure, ultrasound contrast and SDS-PAGE (WT N-His-Ana-GvpC) | nonlinear CNR with ClpXP induction (FIG. 10F) [2] | nonlinear ultrasound contrast in the mouse colon [2]
ClpXP in the reconstituted cell-free TX-TL system (purified Flag-ClpXdeltaNLinkedHexamer-His6 and ClpP from the pBEST-ClpP plasmid) | a reduction of “50% collapse” pressure from about 476 kPa to about 223 kPa | Gel electrophoresis performed after incubating GVSClpXP with this cell-free extract showed significant degradation of the engineered GvpC, compared to a negative control condition in which the extract was pre-treated with a protease inhibitor | a substantial weakening of the GV shell upon ClpX exposure, with the hydrostatic collapse midpoint shifting by nearly 250 kPa | FIG. 9E shows an 860% increase in CNR | a 17 dB enhancement in the nonlinear contrast produced by GVSClpXP at an acoustic pressure of 477 kPa, in response to ClpXP activity | Control GVs containing wild type GvpC showed no sensitivity to ClpXP |  | 
ClpXP of E. coli Nissle 1917 (native, or ClpX and ClpP cloned from the Nissle genome under the pBAD promoter) |  |  |  |  |  |  | FIG. 10F shows a nonlinear CNR increase from 15.9 to 22.6 | Cells induced to express this enzyme showed enhanced nonlinear contrast compared to cells not expressing ClpXP

Source: US20210060185
